Measured values published in PMC10673124.

Target: Elastase (UniProt P00772)
UniProt P00772, sequence (P00772 27-266): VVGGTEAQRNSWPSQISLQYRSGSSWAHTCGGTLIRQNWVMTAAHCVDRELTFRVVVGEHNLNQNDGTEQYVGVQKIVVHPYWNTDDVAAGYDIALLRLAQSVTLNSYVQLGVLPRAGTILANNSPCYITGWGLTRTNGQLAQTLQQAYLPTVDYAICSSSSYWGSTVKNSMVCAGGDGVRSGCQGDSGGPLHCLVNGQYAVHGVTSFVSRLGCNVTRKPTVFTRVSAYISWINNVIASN

Binder VGVPGVGVPGVGVPGV [S1 (…)] has an elastase inhibitory activity (%), peptide at 10-20 mM, substrate N-Succinyle-Ala-Ala-Ala-pNA of 76.3%.
